These results are taken from the nanobody polyreactivity screen of Harvey et al. (2022).

This series in a line: yeast display, Sf9 membrane polyspecificity reagent, FACS + sequencing; frameworks hold sequencing errors. The procedure, abridged:
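Nanobodies from a synthetic yeast display library (Saccharomyces cerevisiae BJ5465), induced 36–48 hours with galactose, were stained 1 hour at 4 °C with 10% biotinylated, detergent-solubilized Sf9 membrane reagent, enriched on streptavidin microbeads, then FACS-sorted. Anti-HA (expression) and streptavidin (reagent binding) fluorescence set low and high (top ~1%) gates. Polyreactivity labels come from the gate of origin. Genes were colony-PCR amplified, MiSeq 2 × 250 sequenced and filtered by CDR length.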
As to “QVKLVESGGGLVQAGGSLRLSCAASGFTYFINGMGWYRQAPGKERQLVAAIRSSGASTYYADSVKGRFTISRDNAKNTVYLQMNSLKPEDTAVYYCNARSSVCNSGADYDYWGQGTQVTVSS”, the “polyreactivity (PSR sort gate)” value is reported as “low polyreactivity”.
The entry for “QVQLVESGGGLVQAGGSLRLSCAASGSIFGLYAMGWYRQAPGKERELVAVITYSVGTTYYADSVKGRFTISRDNAKNTVYLQMNSLKPEDTAVYYCAADLYWYYPWSAYYGEYDYWGQGTQVTVSS” is “low polyreactivity”.
Under “QVKLVESGGGLVQAGGSLRLSCPASGRIFYTNARGWSRQQPGQESEFVAAISYSGGTTYYADSVKGRFTISRDNAKNNVYLQMNSLKPEDTAVYYCARRYRSYYYRSKMDYWGQGTQVTVSS” stands “high polyreactivity”.
Consider “QVQLVESGGGLVQAGGSLRLSCAASGYTFYSNAMGWYRQAPGKERELVAVISRGGGTYYADSVKGRFTISRDNAKNTVYLQMNSLKPEDTAVYYCAASTFTYHWRYDYWGQGTEVTVSS”, for which the “polyreactivity (PSR sort gate)” value is given as “low polyreactivity”.
The entry for “QDQLVESGGGLVQAGGSLRLSCAASGSIFGGNTMGWYRQAPGKERELVAAISRSGGSTYYADSVKGRFTISRDNAKNTVYLQMNSLKPEDTEVYYCYRKQAGHAKGYDYWGQGTQVTVSS” is “high polyreactivity”; for “QVQLVESGGGLVQAGGSLRLICAASGRIFWGNAMGWYRQAPGKERELVAAINSIGGTTYYADSVKGRFTISRDNAKNTVYLQMNSLKPEDTAVYYCAAQTFVYRKELLSRYEYWGQGTQVTVSS” it is “high polyreactivity”.
Under “QVQLVESGGGLVQAGGTLRLSCAASGRIFRYNGMGWYRQAPVKERELVAGINWIGGRTYYADSVKGRFTISRDNAKNTVYLQMNSLKPEDTAVYYCAAYWYYIKATTDSDARFDYWGQGTQVTVSS” stands “high polyreactivity”.
Regarding “QVQLVESGGGLVQAGGSLRLSCAASGLTFESYAMGWYRQAPGKERELVAGIDWSGGSTYYADSVKGRFTISRDNAKNTVYLQMNSLKPEDTAGYYCKRYGNSNYFAPGPLYNYWGQGTQVTVSS”, the “polyreactivity (PSR sort gate)” value was “high polyreactivity”.
The entry for “QVQLVESGGGLVQAGGSLGLSCAASGSIFTNYAMGWYRQAPGKERELVAAISVGGGRTYYADSVKGRFTISRDNAKNTVDLQMNSLKPEDTAVYYCAARYPFGSLGRYGYWGQGTQVTVSS” is “high polyreactivity”; for “QVQLVESGAGLVQAGGSLRLSCAASVRIFFYGMGWYIQAPGKQMELVATITSVSNTYYADSVKGRFTISRDNAKNTVYLQMNSLKPEDTAVYYCAARQDRYRYRYGYWGHGTQVTVSS” it is “high polyreactivity”; for “QVQLVESGGGLVQAGGSLRLSCAASGIIFNSYSMGLYRHAPGKERELVAAITYSGTRTYYADSVKGRFTISRDNAKNTVYLQMNCLKPEDTAVYYCNAVTGRGRTITQYDSWGQGTQVTVSS” it is “high polyreactivity”.
“QVQLVESGGGLVQAGGSLRLSCAASGGIFEAYVMGWYRHAPGKERELVAAISFRGGSTYYADSVKGRFTISRDNAKNTVYLQMNSLKPEDTAVYYCAADYRHQGYDYWGQGTQVTVSS”: the “polyreactivity (PSR sort gate)” value is reported as “low polyreactivity”.
Under “QVQLVQSGGGLVQAGGSLRLSCAASGRIFADNAMGWYRQAPGKERELVADITYSGGSTYYADSVKGRFTISRDNAKNTVYLQMNILKPEDTVVYYCAAGRSSLYFPGYYYWGQGTLVTVSS” stands “low polyreactivity”.
Under “QVQLVESGGGSVQAGGSLRLSCAASGITSYGYAMGWYRQAPGKERDLVASISRTGGNTYADSVKGRFTISRDNAKNTVYLQMNSLKPEDTAVYYCNAGRSWDYWYGYDYWGQGTQVTVSS” stands “low polyreactivity”; under “QVQLVESGGGLVQAGGSLRLSCAASGFTFRYNAMGWYRQAPGKERELVASITYSGGTTTYADSVKGRFTISRDNAKNTVYLQMNSLKPEDTAVYYCAARGYFSGYRVYYWGQGTQVTVSS”, “high polyreactivity”; under “QDQHVESGGGLVQAGCSLRLSCAASGSIFKDNAMGWYRPAPCKEWELVADITIGDSTTYEDSVKGRFTISRDNAKNTVYLHMNSLKPEDTAVYYCAADNYIIKYDYWDYDYCGQGTQVTVSS”, “low polyreactivity”.
Under “QVQLVESGGGLVLAGGSLRLSCAASGIIFYYYTMGWYRQAPGKERELVAWSGGNTNYADSVKGRFTISRDNAKNTVYLQMNSLIPEDSAVYYCNALAIWSDDWDQWISYADDYWGQGTQVTVSS” stands “low polyreactivity”; under “QVQLVESGGGLVQAGGSLRLSCAASGSIFDPYAMGWYRQAPGKERELVAAIDYSGGSTYYADSVKGRFTISRDNAKNTVYLQMNSLKPEDTAVSYCAADYFWLYYSEYGYWGQGTQVTVSS”, “low polyreactivity”; under “QVQLVESGGGLVQAGGSLRLSCAASGITFYRYAMGWYRQAPGKERELVAAISRSGGSTYYADSVKGRFTISRDNAKNTVYLQMNSLKPEDTAGYYCAAYILGNRDGYEYWGQGTQVTVSS”, “high polyreactivity”.
With “QVQLVESGGGLVQAGGSLRLSCAASGSTFFPYAMGWYRQAPGKVRELVAAIRWSGGRTYYADSVKGRFTISRDNAKNTVFLQMNSLNPEDTAVYYCAAYKYLDYDYGGQGTQVTVSS”, the “polyreactivity (PSR sort gate)” value was “high polyreactivity”.
The entry for “QVQLVESGGGLVQAGGSLRLSCAASGRIFQYYAMGWYRPAPGKEREFVAAISDSGSNTYYADSVMGRFTISRDNAKNTVYLQMNSLKPEDTAVYYSAALYATRALFYYWGQGTQGTVSS” is “low polyreactivity”; for “QVQLVESWGGLVQAGGSLRLSCAASGSTFILYAMGGYRQAPGNERELVAAITSRGVSTYYADSVKGRFTISRDNAKNTVYLQMNSLKPEDTAVYNWAADQYQASYYYWGQGTQVTVSS” it is “low polyreactivity”.
Under “QVQLVESGGGLVQAGGSLRLSCAASGSIFVSNAMGWYRQAPGKERELVAAISSGGSTNYADSVKGRFTISRDNAKNTVYLQMNSLKPEDTAVYYCAARYYGYAGRFDYWGQGTQVTVSS” stands “low polyreactivity”; under “QVQLVESGGGLVQAGGSLRLSCAASGRTFQRYAMGWYRQAPGKERELVAAITSSGGTTYYADSVKGRFTISRDNAKNTVYLQMYSMKPEDTAVYYCAARRITSRYDYWGQGTQVTVSS”, “high polyreactivity”; under “QVQLVESGGGLVQAGGSLRLSCAASGITFKRYAMGWYIQAPGKERELVAAISDIGGRTYYADSVKGRFTISRDNAKNTVYLQMNSLKPEDTEVYYCAADYYSPVDWYYYWGQGTQVTVSS”, “high polyreactivity”.
The entry for “QVQLVESGGGLVQAGGSLRLSCAASGFIFYAYAMGWYRQAPGKERELVAAITSSGSRTYYADSVKGRFTISRDNAKNTVYLQMNSLKPEDTAVYYCNARSGGVRYSNIGTEKYDYWGQGTQVTVSS” is “low polyreactivity”; for “QVQLVESCVVLVQAAGSLRLSFAHSGSTFKVYAMGTYRQATGKERELVASISSGGSTNYADSVKGRFTISRDNAKNTVYLQMNSLKPEDTAVYYCALRRYTHRRYRFDYWGQGTQVTVSS” it is “high polyreactivity”.
“QVQLVESGGGLVQAGGSLRLSCAASGFTFPVNAMGWYRQAPGKERELVAAITKRGGGTYYADSVKGRFTISRDNAKNTVYLQMNSLKPEDTAVYYCAARSFWPYYGGDYDYWGQGTQVTVSS”: the “polyreactivity (PSR sort gate)” value was “high polyreactivity”.
The entry for “QVQLVESGGGLVQAGGSLRLSCADSGRTLGYYAKGWYRQAPGKEREVVAAITSGGRTNYADSVKGRFTISRDNAKNTVYLQMNSLKPEDTAVYYCAAARYLSGGYEKYDYWGQGTQVTVSS” is “low polyreactivity”.
In the case of “QVQLVESGGGLVQAGGSLRLSCAASGSIFPPNAMGWDRQAPGKERELVAGISQSGGSTYYAESVKGRFTISRDNAKNTVYLQMNSLKPEDTAVYYCARSFYSGRRYYYWGQGTQVTVSS”, the “polyreactivity (PSR sort gate)” value was “high polyreactivity”.
The entry for “QFQLVESGGGLVQAGGSLRLSCAASGSIFELNAKGLYRTAPGKERELVAAITSSGSSTYYADSVKGRFTISRDNAKNTVYLQMNRLKPEDTAVYYCFRPHDYWGQGTQVTESS” is “low polyreactivity”; for “QVQLVESGGGLVQAGGSLRLSCAASGPTFPFNAMGWYRQAPGKERELVAAISWRDGRTYYADSVKGRFTISRDNAKNTVYLQMNSLKPEDTAVYYCNVVKRRSDWGMDYWGQGTQVTVSS” it is “high polyreactivity”; for “QVQLVESGGGLVHAGGSLRLSCAASGRIFTTNAMGWYRQAPGKERELVASITRSGSTYYADSVKGRFTISRDNAKNTVYLQMNSLKPEVTAVYYCAAYAYIFLDWGGYPYYLYEYDYWGQGTQVTVSS” it is “low polyreactivity”.
Under “QVQLVESGGGLVQAGGSLRLSCAASGSIFGGYAMGWYRQAPGKEREFVAAISRRGASTYYADSVKGRFTISRDNAKNTVYLQMNSLKPEDTAVYYCNARAYGRIDGHSATYGYWGQGTQVTVSS” stands “high polyreactivity”; under “QVQLVESGGGLVQAGGSLRLSCAASGFTFSRNAMGWYRQAPGKERELVAAITSRGGSTYYADSVKGRFTISRDNAKNTVYLQMNSLKPEDTAVYYCNAKLISGIYTADSRSRIYDYWGQGTQVTVSS”, “high polyreactivity”.
The entry for “QVQLVESGGGLVQAGGSLRLSCAASGSISDSYAMGWYRPAPGKERELVAAITSGDSTYYADSVKGRFTISRDNAKNTVYLQMNSLKPEDTAVYYCAKRVSRVRGYGFTDWSEYDYWGQGTQVTVSS” is “low polyreactivity”; for “QVQLVESGGGLVQAGGSLRLSCAASGSTFDTNAMGWYRQAPGKERELVAAISWSRDRTYYADSVKGRFTISRDNAKNTVYLQMNSLNPEDTAVYYCNAYLSFRRQYGYWGQGTQGTVSS” it is “high polyreactivity”; for “QVQLVESGGGLVQAGGSLRLSCAASGLIFLEYAMGWYRQAPGKERELLAAISTSGGSTYYADSVKGRFTISRDNAKNTVYLQMNSLKPEDTAVYYCAAEPVYNYYFHDGDYWGQGTQVTVSS” it is “low polyreactivity”.
As for “QVQLVESGGGLVQAGGSLRLSCAASGSTFYDYAMGWYRQAPGKERVLVAAISTSGGSTYADSVYGRFTISRDNAKNTVYLQMNSLKPEDTAVYYCNADDPGYAVPWYWFKYDYWGQGTQVTVSS”, the “polyreactivity (PSR sort gate)” value is “low polyreactivity”.
On to “QVQLVESGGGLVQAGGSLRLSCAASVFTFQYYAMGWYRQAPGKERELVAAISRRGGRTDYADSVKGRFTISRDNAKNTVYLQMNSLKPEDTAVYYCARDPGAFEYWGQGTQVTLSS”, for which the “polyreactivity (PSR sort gate)” value was “high polyreactivity”.
